Legend:
[1] = target: mu-opioid receptor unfused (MOR); assay: ADSoRB radiotracer elution from microsomal membranes with GPPNHP, scintillation counting
[2] = target: mu-opioid receptor fused to Gαi1-RLuc8 chimera (MOR-Gi1RLuc) (human) (UniProt P63096); assay: as above
[3] = target: µ-opioid receptor (MOR) fused to Gαi1 protein (MOR-Gi1) (human) (UniProt P63096); assay: ADSoRB radiotracer elution from microsomal membranes with GPPNHP, scintillation counting (FIG. 2B)
[4] = target: µ-opioid receptor (MOR) fused to Gαi1 protein (MOR-Gi1) (human) (UniProt P63096); assay: ADSoRB radiotracer elution from microsomal membranes with buffer control, scintillation counting (FIG. 2B)
[5] = target: mu-opioid receptor unfused (MOR); assay: ADSoRB radiotracer adsorption to microsomal membranes, scintillation counting
[6] = target: mu-opioid receptor fused to Gαi1-RLuc8 chimera (MOR-Gi1RLuc) (human) (UniProt P63096); assay: as above
neurotensin receptor = assay: cell-based or functional assay

Chain of mu-opioid receptor fused to Gαi1-RLuc8 chimera (MOR-Gi1RLuc) (human) (P63096 whole entry, change not shown, the tested form may be a part): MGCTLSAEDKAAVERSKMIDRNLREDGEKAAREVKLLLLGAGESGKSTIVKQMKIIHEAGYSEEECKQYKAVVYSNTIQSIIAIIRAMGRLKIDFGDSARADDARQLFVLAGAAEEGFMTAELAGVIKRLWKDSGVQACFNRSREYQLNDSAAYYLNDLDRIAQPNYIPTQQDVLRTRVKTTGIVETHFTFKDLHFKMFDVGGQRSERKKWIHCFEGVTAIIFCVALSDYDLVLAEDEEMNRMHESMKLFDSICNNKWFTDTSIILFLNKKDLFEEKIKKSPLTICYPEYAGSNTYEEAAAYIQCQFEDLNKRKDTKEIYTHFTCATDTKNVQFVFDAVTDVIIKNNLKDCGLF
Chain of µ-opioid receptor (MOR) fused to Gαi1 protein (MOR-Gi1) (human) (P63096 whole entry, the tested form may be a part): as the sequence (P63096 whole entry, change not shown, the tested form may be a part) above

NET BRET response at GαZ, 96-well plate (neurotensin receptor) | NET BRET response at GαZ, 384-well plate (neurotensin receptor) | Neurotensin potency, GαZ-114-Rluc8/Gβ3γ1-GFP2 BRET biosensor, 96-well plate (neurotensin receptor) [nM] | Neurotensin potency, GαZ-114-Rluc8/Gβ3γ1-GFP2 BRET biosensor, 384-well plate (neurotensin receptor) [nM] | Substance | fraction of agonist eluted upon GPPNHP treatment (% of total agonist) (% of total agonist) [1] | fraction of agonist eluted upon GPPNHP treatment (% of total agonist) (% of total agonist) [2] | elution upon complex dissociation/uncoupling with GPPNHP (% of total agonist added) (% of total agonist added) [3] | elution with buffer control (% of total agonist added) (% of total agonist added) [4] | unbound tracer (%) (% unbound tracer) [5] | unbound tracer (%) (% unbound tracer) [6]
 |  |  |  | [3H]DAMGO (peptide) | 0.8 | 7 | 30 | 2 | 67 | 23
0.495 | 0.625 | 1.85 | 1.68 | neurotensin peptide (8-13) (from UniProt P30990 31-36) |  |  |  |  |  | 
